Here are results for 3 molecules from patent US20240181022A1, “AMURINS LYSINS, AND LYSIN-ANTIMICROBIAL PEPTIDE (AMP) CONSTRUCTS ACTIVE AGAINST GRAM-NEGATIVE BACTERIA” (priority 2021, published 2024).

≈ marks a conversion by molar mass, not a printed value. Where no end group is shown, it is not given here. A value given as a limit tells only on which side of the number the result lay.

Assay [1] has as its system E. cloacae. Description: Checkerboard synergy assay (FICI) against E. cloacae. It counts as cell-based, Enterobacter cloacae. The following applies: E. cloacae ATCC 13047. The protocol:
(§1) Any known method to assess MIC may be used.
(§2) Checkerboards are constructed by first preparing columns of e.g., a 96-well polypropylene microtiter plate, wherein each well has the same amount of antibiotic diluted 2-fold along the horizontal axis. […] Bacteria are added to the drug combinations at concentrations of 1×10^5 […] in CAA, for example, with or without human serum or pulmonary surfactant. […] Summation fractional inhibitory concentrations (ΣFICs) are calculated for each drug and the minimum ΣFIC value (ΣFICmin) is used to determine the effect of the Chp peptide/antibiotic combination.
(§3) GN370 was further tested in combination with up to seven additional antibiotics (in addition to meropenem) against a variety of bacterial strains, including P. aeruginosa, A. baumannii, E. coli, E. cloacae, and K. pneumoniae. GN370 and the subject antibiotics were tested in a checkerboard assay format, and FICI values were determined, wherein ≤0.5 indicates synergy, >0.5-≤1 indicates additive; and >1 indicates indifferent.

In assay [2] the test system is K. pneumoniae. Description: Checkerboard synergy assay (FICI) against K. pneumoniae. It counts as cell-based, Klebsiella pneumoniae. The following applies: K. pneumoniae HM-44. The protocol: as §1, §2, §3
The test system of assay [3] is P. aeruginosa. As to the kind of experiment: microbe, parasite or virus in culture. The following applies: Pseudomonas aeruginosa.
Assay [4] concerns P. aeruginosa AR-769. As to the kind of experiment: Repeat dose study of AM1 in the rabbit pulmonary infection model. It counts as in vivo. The following applies: for Log CFU change v. pre-treatment (at 6 hours) / Mean Bacterial Density in Lung ± SD / Survival: rabbit.
Assay [5] concerns K. pneumoniae. As to the kind of experiment: MIC by broth microdilution against K. pneumoniae. It counts as cell-based, Klebsiella pneumoniae.
The subject of the next assay is Enterobacter aerogenes. Description: MIC by broth microdilution against Enterobacter aerogenes. It counts as cell-based. The following applies: N 1. The protocol:
(§4) MIC values were determined by broth microdilution against clinical isolates and resistant isolates from a wide range of bacterial species, including isolates from the CDC Antibiotic Resistance bank, including the GN ESKAPE pathogens and E. coli, including carbapenem-resistant Enterobacteriaciae, Acinetobacter, and Pseudomonas.

Assay [6] deals with Gram-negative bacteria biofilm. Description: Antibiofilm activity (MBEC) against Gram-negative bacteria, incl. MDR and XDR isolates. The following applies: range of MDR and XDR isolates. It counts as cell-based.
In another assay the test system is A. baumannii. Description: MBEC against A. baumannii biofilm. The following applies: MDR and XDR A. baumannii (22). It counts as cell-based, Acinetobacter baumannii.
Assay [7] concerns E. cloacae. Description: MBEC against E. cloacae biofilm. It counts as cell-based, Enterobacter cloacae. The following applies: MDR and XDR E. cloacae (14).
Assay [8] deals with P. aeruginosa. As to the kind of experiment: GN370 time-kill assay, P. aeruginosa. It counts as cell-based, Pseudomonas aeruginosa. The following applies: for Log10 CFU/mL: P. aeruginosa PA25. The protocol:
(§5) A kinetic analysis of GN370 bactericidal activity was performed using a time-kill assay format in which CFU reductions of each target organism (P. aeruginosa, K. pneumoniae, A. baumannii, E. coli, and E. cloacae) were measured over 24 hours at 37° C. […] Bactericidal activity was defined as CFU reductions of ≥3-log 10 CFU/mL as compared to the inoculum at the 24-hour time point.

For assay [9], the system named is E. cloacae. As to the kind of experiment: GN370 time-kill assay, E. cloacae. The following applies: for Log10 CFU/mL: E. cloacae ATCC 29941. It counts as cell-based, Enterobacter cloacae. How it is done:
as §5

In assay [10] the test system is A. baumannii (ATCC BAA-747). As to the kind of experiment: microbe, parasite or virus in culture. It counts as cell-based, Acinetobacter baumannii.
The test system of a further assay is E. coli (ATCC 25922). As to the kind of experiment: microbe, parasite or virus in culture. It counts as cell-based, Escherichia coli.
Assay [11] relates to P. aeruginosa AR-769. Description: GN370 in the rabbit pneumonia model. It counts as in vivo, New Zealand White rabbits.
The test system of a further assay is Serratia marcescens. As to the kind of experiment: MIC by broth microdilution against Serratia marcescens. It counts as cell-based. The following applies: N 9. The protocol: as §4
In general terms: Broth dilution looks for growth in wells or tubes with falling amounts of substance.

[12] abbreviates: AM1 1 mg/kg i.v. every 24 hours (n = 7).
The mark [13] stands for this setting: AM1 5 mg/kg i.v. every 24 hours (n = 8).
Setting [14] is: Klebsiella pneumoniae, AR Bank, N 32.
The mark [15] stands for this setting: Klebsiella pneumoniae, Weill Cornell, N 9.
The mark [16] stands for this setting: Klebsiella pneumoniae, all isolates, N 41.

One may read the MIC90 as the lowest concentration that inhibits either 90% of growth or 90% of the strains tested, depending on the study. A word on the MIC50: it is an inhibitory concentration at the 50% level, which refers to growth in some studies and to a panel of isolates in others. Higher therefore signals lower susceptibility.

As for `C[C@@H](O)[C@H]1C(=O)N2C(C(=O)O)=C(S[C@@H]3CN[C@H](C(=O)N(C)C)C3)[C@H](C)[C@H]12` [meropenem, reference compound], the “FICI of the antibiotic with GN370” value amounted to 0.531 with E. cloacae [1] and 0.5 in the assay on K. pneumoniae [2]. This molecule also returned an MIC in the assay on P. aeruginosa [3] of 64 µg/mL (≈ 167 µM).
Regarding “MRLKMARRRYRLPRRRSRRLFSRTALRMHPRNRLRRIMRGGIRF [AM1]”, in the assay on P. aeruginosa AR-769 [4] (agent alone, intravenous, treatment from 6 hours post-infection), the “mean bacterial density in lungs compared to the vehicle control group” value is reported as “moderate to no CFU/g reduction”. In addition, in the assay with P. aeruginosa AR-769 [4] (setting [12]), the “Log CFU change v. pre-treatment (at 6 hours)” value was 1.56 Log CFU, the “Mean Bacterial Density in Lung ± SD” value came out at 9.02 ± 1.49 Log CFU/lung and the Survival is reported as 0%. In the assay on P. aeruginosa AR-769 [4] (setting [13]), the “Log CFU change v. pre-treatment (at 6 hours)” value is 1.80 Log CFU, the “Mean Bacterial Density in Lung ± SD” value is on record as 8.98 ± 1.47 Log CFU/lung and the Survival was found to be 37.5%.

B1: GN370: lysin-AMP construct, SEQ ID NO: 149: MIDR, FIRL and NPTH moieties N-terminal to GN202 lysin (protein)
chain: MIDRFIRLNPTHGPRRPRRPGRRAPVRTSQRGIDLIKSFEGLRLSAYQDSVGVWTIGYGTTRGVTRYMTITVEQAERMLSNDIQRFEPELDRLAKVPLNQNQWDALMSFVYNLGAANLASSTLLDLLNKGDYQGAADQFPHWVNAGGKRLDGLVKRRAAERALFLEPLS
modifications: GN370 lysin
In the case of B1, the MIC result against K. pneumoniae [5] (K. pneumoniae ATCC 700603) is “(MIC = 4 μg/mL)”; against K. pneumoniae [5] (K. pneumoniae HM-44 (head of Table 19)) it was 4 µg/mL; in assay [10] (A. baumannii ATCC BAA-747, target organism of serial passage study), 1 µg/mL; with E. coli (ATCC 25922) (E. coli ATCC 25922, target organism of serial passage study) it was 0.5 µg/mL. Moreover, the MIC90 against K. pneumoniae [5] (K. pneumoniae clinical and resistant isolates) is 4 µg/mL; against K. pneumoniae [5] (setting [14]) it was 4 µg/mL; against K. pneumoniae [5] (setting [15]), 4 µg/mL; against K. pneumoniae [5] (setting [16]), 4 µg/mL; in the assay with Serratia marcescens it was >64 µg/mL. For the same molecule, the MIC50 in the assay on K. pneumoniae [5] (setting [14]) is 1 µg/mL; in the assay with K. pneumoniae [5] (setting [15]) it was 2 µg/mL; against K. pneumoniae [5] (setting [16]), 2 µg/mL; in the assay with Serratia marcescens, 32 µg/mL. Besides, the “MIC Range” value in the assay on K. pneumoniae [5] (setting [14]) was 0.125 to 4 µg/mL; against K. pneumoniae [5] (setting [15]), 0.25 to 4 µg/mL; with K. pneumoniae [5] (setting [16]) it was 0.125 to 4 µg/mL; with Enterobacter aerogenes it was 1 µg/mL. Besides, in [6], the MBEC was ≤ 4 µg/mL. Further, the MBEC50 in the assay with A. baumannii and in the assay on E. cloacae [7] was 1 µg/mL throughout. The MBEC90 with A. baumannii and with E. cloacae [7] was 2 µg/mL throughout. Moreover, the “MBEC Range” value in the assay with A. baumannii and with E. cloacae [7] was 0.5 to 2 µg/mL each time. Besides, the entries for the “Number of isolates at MBEC 0.5 μg/mL” value with A. baumannii and in the assay on E. cloacae [7] were 2 and 1, respectively. Also, the “Number of isolates at MBEC 1 μg/mL” value is 12 in the assay with A. baumannii and 9 in the assay on E. cloacae [7]. Besides, the “Number of isolates at MBEC 2 μg/mL” value came to 8 in the assay with A. baumannii and 4 with E. cloacae [7]. Also, the “Log10 CFU/mL” value in the assay with P. aeruginosa [8] (0.2x MIC, 1 hr) is recorded as 4.5 Log10 CFU/mL; with P. aeruginosa [8] (0.2x MIC, 3 hr), 4.7 Log10 CFU/mL; in the assay on P. aeruginosa [8] (0.2x MIC, 24 hr) it was 9.5 Log10 CFU/mL; with P. aeruginosa [8] (1x MIC, 1 hr), 1.5 Log10 CFU/mL; in the assay with P. aeruginosa [8] (1x MIC, 3 hr), 1.5 Log10 CFU/mL; with P. aeruginosa [8] (1x MIC, 24 hr), 1.54 Log10 CFU/mL. The “Log10 CFU/mL” value with P. aeruginosa [8] (2x MIC, 1 hr) was 1.5 Log10 CFU/mL; with P. aeruginosa [8] (2x MIC, 3 hr) it was 1.5 Log10 CFU/mL; in the assay on P. aeruginosa [8] (2x MIC, 24 hr), 1.5 Log10 CFU/mL; in the assay on P. aeruginosa [8] (5x MIC, 1 hr) it was 1.5 Log10 CFU/mL; in the assay with P. aeruginosa [8] (5x MIC, 3 hr), 1.5 Log10 CFU/mL; with P. aeruginosa [8] (5x MIC, 24 hr), 1.5 Log10 CFU/mL. Further, the “Log10 CFU/mL” value in the assay on E. cloacae [9] (0.2x MIC, 1 hr) was 5.0 Log10 CFU/mL; in the assay with E. cloacae [9] (0.2x MIC, 3 hr), 5.0 Log10 CFU/mL; with E. cloacae [9] (0.2x MIC, 24 hr) it was 9.0 Log10 CFU/mL; in the assay on E. cloacae [9] (1x MIC, 1 hr) it was 2.4 Log10 CFU/mL; with E. cloacae [9] (1x MIC, 3 hr), 1.5 Log10 CFU/mL; in the assay on E. cloacae [9] (1x MIC, 24 hr), 2.3 Log10 CFU/mL. Also, the “Log10 CFU/mL” value in the assay with E. cloacae [9] (2x MIC, 1 hr) was determined as 1.6 Log10 CFU/mL; in the assay on E. cloacae [9] (2x MIC, 3 hr), 1.6 Log10 CFU/mL; in the assay with E. cloacae [9] (2x MIC, 24 hr), 1.6 Log10 CFU/mL; in the assay on E. cloacae [9] (5x MIC, 1 hr), 1.5 Log10 CFU/mL; in the assay with E. cloacae [9] (5x MIC, 3 hr), 1.5 Log10 CFU/mL; with E. cloacae [9] (5x MIC, 24 hr), 1.5 Log10 CFU/mL. Moreover, the “concentration with bactericidal activity (≥3-log 10 CFU/mL reduction at 24 hours)” value with P. aeruginosa [8] (P. aeruginosa, 37° C.) is on record as ≥ 1 ×MIC; with E. cloacae [9] (E. cloacae, 37° C.), ≥ 1 ×MIC. Moreover, the “change in MIC over 28-day serial passage” value (in [10] (A. baumannii (ATCC BAA-747)); in the assay on E. coli (ATCC 25922) (E. coli (ATCC 25922))) was “No change” throughout. The “animals surviving until the end of the study” value in the assay with P. aeruginosa AR-769 [11] (GN370 at 3 mg/kg and 10 mg/kg alone or in addition to amikacin) was determined as 100%. The “decrease of mean bacterial densities in lungs vs vehicle controls” value with P. aeruginosa AR-769 [11] (amikacin-alone or GN370-alone) is recorded as ~2.0 log10 CFU/g.
